Experimental findings from article doi:10.1101/2021.05.20.444958 are described below.

For this data set, the system named is His6-DnaA (Escherichia coli K-12?). Kind of data set: EMSA. On the technique in general: In EMSA bound probe runs differently from free probe, usually more slowly.

As to iraD upstream region, 672 bp, the Kd came to 42 nM.

In general, Kd refers to the equilibrium constant for the complex coming apart. Low values mean a tighter complex, high ones a looser complex.
